Data reported in publication PMC8750365.

Assays:
[1] = target: Endogenous TOP2A of U2OS cells (human (endogenous in U2OS)) (UniProt P11388); assay: proximity ligation
[2] = target: Endogenous TOP1 of U2OS cells (human (endogenous in U2OS)) (UniProt P11387); assay: proximity ligation
Sequence of UniProt P11387 (P11387 whole entry): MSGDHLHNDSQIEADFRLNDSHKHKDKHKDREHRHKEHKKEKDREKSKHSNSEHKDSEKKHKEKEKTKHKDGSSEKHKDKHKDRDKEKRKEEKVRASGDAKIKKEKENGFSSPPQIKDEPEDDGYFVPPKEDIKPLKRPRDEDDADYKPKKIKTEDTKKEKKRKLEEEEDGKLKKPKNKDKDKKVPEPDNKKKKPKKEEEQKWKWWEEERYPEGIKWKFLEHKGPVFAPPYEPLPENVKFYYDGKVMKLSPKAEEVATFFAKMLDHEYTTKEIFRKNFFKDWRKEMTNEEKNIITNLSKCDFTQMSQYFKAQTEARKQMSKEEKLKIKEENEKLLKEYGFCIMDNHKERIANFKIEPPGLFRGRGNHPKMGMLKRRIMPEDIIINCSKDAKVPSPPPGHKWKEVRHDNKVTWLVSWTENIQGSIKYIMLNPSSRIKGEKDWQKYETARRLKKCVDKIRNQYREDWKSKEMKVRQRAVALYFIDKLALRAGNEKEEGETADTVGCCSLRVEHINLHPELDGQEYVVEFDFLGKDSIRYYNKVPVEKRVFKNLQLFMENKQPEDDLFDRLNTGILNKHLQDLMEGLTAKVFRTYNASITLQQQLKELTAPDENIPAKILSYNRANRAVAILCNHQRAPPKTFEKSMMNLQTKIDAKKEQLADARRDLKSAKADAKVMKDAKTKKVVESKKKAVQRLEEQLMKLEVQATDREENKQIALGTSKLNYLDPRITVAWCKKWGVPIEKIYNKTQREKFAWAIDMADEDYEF

Sequence of UniProt P11388 (P11388 whole entry): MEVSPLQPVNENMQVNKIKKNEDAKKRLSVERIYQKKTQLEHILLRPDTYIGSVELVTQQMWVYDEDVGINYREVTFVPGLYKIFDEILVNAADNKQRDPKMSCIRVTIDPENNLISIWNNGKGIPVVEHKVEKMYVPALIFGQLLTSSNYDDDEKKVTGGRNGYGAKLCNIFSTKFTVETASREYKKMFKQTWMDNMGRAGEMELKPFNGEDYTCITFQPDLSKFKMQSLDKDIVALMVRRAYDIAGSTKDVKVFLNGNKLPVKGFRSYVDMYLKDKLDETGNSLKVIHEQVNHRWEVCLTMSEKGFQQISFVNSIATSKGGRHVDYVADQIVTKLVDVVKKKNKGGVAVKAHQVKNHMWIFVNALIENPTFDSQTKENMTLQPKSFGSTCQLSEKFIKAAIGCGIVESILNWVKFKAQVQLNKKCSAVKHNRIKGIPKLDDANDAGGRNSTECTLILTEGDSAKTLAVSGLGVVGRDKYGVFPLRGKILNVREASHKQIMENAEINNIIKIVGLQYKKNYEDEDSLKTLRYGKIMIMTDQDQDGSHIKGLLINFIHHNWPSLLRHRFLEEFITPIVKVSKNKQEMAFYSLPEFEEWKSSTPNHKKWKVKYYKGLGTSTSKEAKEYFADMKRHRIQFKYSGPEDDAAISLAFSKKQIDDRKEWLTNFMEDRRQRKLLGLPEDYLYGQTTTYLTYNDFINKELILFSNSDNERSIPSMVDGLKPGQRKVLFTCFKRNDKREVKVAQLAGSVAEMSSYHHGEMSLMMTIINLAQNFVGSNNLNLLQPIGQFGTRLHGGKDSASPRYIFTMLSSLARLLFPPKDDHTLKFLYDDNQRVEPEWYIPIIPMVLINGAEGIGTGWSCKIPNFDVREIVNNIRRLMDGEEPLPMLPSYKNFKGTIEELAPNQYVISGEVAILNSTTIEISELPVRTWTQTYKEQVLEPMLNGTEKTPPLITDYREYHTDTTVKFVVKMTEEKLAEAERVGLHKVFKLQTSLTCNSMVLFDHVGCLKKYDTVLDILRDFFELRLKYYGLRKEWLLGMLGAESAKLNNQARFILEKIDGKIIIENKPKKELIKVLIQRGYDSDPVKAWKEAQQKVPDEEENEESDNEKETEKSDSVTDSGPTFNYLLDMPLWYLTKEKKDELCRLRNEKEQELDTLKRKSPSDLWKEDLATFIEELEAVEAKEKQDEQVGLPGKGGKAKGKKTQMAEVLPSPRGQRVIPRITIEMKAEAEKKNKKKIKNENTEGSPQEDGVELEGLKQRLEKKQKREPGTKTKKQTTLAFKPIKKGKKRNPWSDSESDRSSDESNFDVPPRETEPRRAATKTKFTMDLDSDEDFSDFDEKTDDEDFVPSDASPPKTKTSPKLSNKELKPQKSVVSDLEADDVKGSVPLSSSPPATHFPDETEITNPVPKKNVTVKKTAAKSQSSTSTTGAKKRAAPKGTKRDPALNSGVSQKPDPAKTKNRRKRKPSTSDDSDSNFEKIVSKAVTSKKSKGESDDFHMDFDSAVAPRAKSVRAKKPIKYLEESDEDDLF

| Substance | PLA dots/cell (with Dox) [1] | PLA dots/cell (with Dox) [2] | PLA dots/cell (untreated cells) [1] | PLA dots/cell (untreated cells) [2] |
| --- | --- | --- | --- | --- |
| MYC-EGFP, doxycycline-inducible, in U2OS-MYC-EGFP cells (from UniProt P01106 1-454) (natural protein) | > 80 dots/cell | > 80 dots/cell |  |  |
| Endogenous MYC of U2OS cells (from UniProt P01106 1-454) (natural protein) |  |  | 60 dots/cell | 60 dots/cell |
